Values quoted from earlier work in publication PMC6615999.

Target: PKR (Homo sapiens) (UniProt P19525)

Kd: 500 µM
Substance: PKR (from UniProt P19525)
